Patent publication US20240132485A1, “HETEROCYCLIC CULLIN RING UBIQUITIN LIGASE COMPOUNDS AND USES THEREOF” (CEMM - FORSCHUNGSZENTRUM FÜR MOLEKULARE MEDIZIN GMBH, priority 2020, published 2024)

Columns and labels:
[1] = molecular target: Nanoluc_DDB1 (N-terminal Nanoluc luciferase, G4S linker, DDB1 (FL)) (UniProt Q16531); assay: NanoBRET in HEK293T cells, 10 µM compound Example 3-2; class B = 3-4 fold increase
[2] = molecular target: Nanoluc_DDB1 (N-terminal Nanoluc luciferase, G4S linker, DDB1 (FL)) (UniProt Q16531); assay: NanoBRET in HEK293T cells, 10 µM compound Example 3-41; class C = 2-3 fold increase
[3] = molecular target: Nanoluc_DDB1 (N-terminal Nanoluc luciferase, G4S linker, DDB1 (FL)) (UniProt Q16531); assay: NanoBRET in HEK293T cells, 10 µM compound Example 3-43; class A = greater than 4-fold increase
[4] = molecular target: Nanoluc_DDB1 (N-terminal Nanoluc luciferase, G4S linker, DDB1 (FL)) (UniProt Q16531); assay: NanoBRET in HEK293T cells, 10 µM compound Example 3-42; class A = greater than 4-fold increase
[5] = molecular target: Nanoluc_DDB1 (N-terminal Nanoluc luciferase, G4S linker, DDB1 (FL)) (UniProt Q16531); assay: NanoBRET in HEK293T cells, 10 µM compound Example 3-56; class C = 2-3 fold increase
[6] = molecular target: Nanoluc_DDB1 (N-terminal Nanoluc luciferase, G4S linker, DDB1 (FL)) (UniProt Q16531); assay: NanoBRET in HEK293T cells, 10 µM compound Example 3-16; class C = 2-3 fold increase
[7] = molecular target: Nanoluc_DDB1 (N-terminal Nanoluc luciferase, G4S linker, DDB1 (FL)) (UniProt Q16531); assay: NanoBRET in HEK293T cells, 10-point titration of compound Example 3-53; class E = >10 µM
[8] = molecular target: Nanoluc_DDB1 (N-terminal Nanoluc luciferase, G4S linker, DDB1 (FL)) (UniProt Q16531); assay: NanoBRET in HEK293T cells, 10-point titration of compound Example 3-9; class A = EC50<=0.25 µM
[9] = molecular target: Nanoluc_DDB1 (N-terminal Nanoluc luciferase, G4S linker, DDB1 (FL)) (UniProt Q16531); assay: NanoBRET in HEK293T cells, 10 µM compound Example 3-62; class A = greater than 4-fold increase
[10] = molecular target: Nanoluc_DDB1 (N-terminal Nanoluc luciferase, G4S linker, DDB1 (FL)) (UniProt Q16531); assay: NanoBRET in HEK293T cells, 10 µM compound Example 3-51; class B = 3-4 fold increase
[11] = molecular target: Nanoluc_DDB1 (N-terminal Nanoluc luciferase, G4S linker, DDB1 (FL)) (UniProt Q16531); assay: NanoBRET in HEK293T cells, 10-point titration of compound Example 3-52; class A = EC50<=0.25 µM
[12] = molecular target: Nanoluc_DDB1 (N-terminal Nanoluc luciferase, G4S linker, DDB1 (FL)) (UniProt Q16531); assay: NanoBRET in HEK293T cells, 10 µM compound Example 3-35; class A = greater than 4-fold increase
[13] = molecular target: Nanoluc_DDB1 (N-terminal Nanoluc luciferase, G4S linker, DDB1 (FL)) (UniProt Q16531); assay: NanoBRET in HEK293T cells, 10 µM compound Example 3-26; class C = 2-3 fold increase
[14] = molecular target: Nanoluc_DDB1 (N-terminal Nanoluc luciferase, G4S linker, DDB1 (FL)) (UniProt Q16531); assay: NanoBRET in HEK293T cells, 10 µM compound Example 3-21; class B = 3-4 fold increase
[15] = molecular target: Nanoluc_DDB1 (N-terminal Nanoluc luciferase, G4S linker, DDB1 (FL)) (UniProt Q16531); assay: NanoBRET in HEK293T cells, 10 µM compound Example 3-1; class B = 3-4 fold increase
[16] = molecular target: Nanoluc_DDB1 (N-terminal Nanoluc luciferase, G4S linker, DDB1 (FL)) (UniProt Q16531); assay: NanoBRET in HEK293T cells, 10 µM compound Example 3-17; class A = greater than 4-fold increase
[17] = molecular target: Nanoluc_DDB1 (N-terminal Nanoluc luciferase, G4S linker, DDB1 (FL)) (UniProt Q16531); assay: NanoBRET in HEK293T cells, 10 µM compound Example 3-44; class A = greater than 4-fold increase
[18] = molecular target: Nanoluc_DDB1 (N-terminal Nanoluc luciferase, G4S linker, DDB1 (FL)) (UniProt Q16531); assay: NanoBRET in HEK293T cells, 10-point titration of compound Example 3-3; class E = >10 µM
[19] = molecular target: Nanoluc_DDB1 (N-terminal Nanoluc luciferase, G4S linker, DDB1 (FL)) (UniProt Q16531); assay: NanoBRET in HEK293T cells, 10-point titration of compound Example 3-14; class A = EC50<=0.25 µM
[20] = molecular target: Nanoluc_DDB1 (N-terminal Nanoluc luciferase, G4S linker, DDB1 (FL)) (UniProt Q16531); assay: NanoBRET in HEK293T cells, 10 µM compound Example 3-34; class C = 2-3 fold increase
[21] = molecular target: Nanoluc_DDB1 (N-terminal Nanoluc luciferase, G4S linker, DDB1 (FL)) (UniProt Q16531); assay: NanoBRET in HEK293T cells, 10 µM compound Example 3-52; class A = greater than 4-fold increase
[22] = molecular target: Nanoluc_DDB1 (N-terminal Nanoluc luciferase, G4S linker, DDB1 (FL)) (UniProt Q16531); assay: NanoBRET in HEK293T cells, 10 µM compound Example 3-15; class D = 1-2 fold increase
[23] = molecular target: Nanoluc_DDB1 (N-terminal Nanoluc luciferase, G4S linker, DDB1 (FL)) (UniProt Q16531); assay: NanoBRET in HEK293T cells, 10 µM compound Example 3-3; class D = 1-2 fold increase
[24] = molecular target: Nanoluc_DDB1 (N-terminal Nanoluc luciferase, G4S linker, DDB1 (FL)) (UniProt Q16531); assay: NanoBRET in HEK293T cells, 10 µM compound Example 3-6; class C = 2-3 fold increase
[25] = molecular target: Nanoluc_DDB1 (N-terminal Nanoluc luciferase, G4S linker, DDB1 (FL)) (UniProt Q16531); assay: NanoBRET in HEK293T cells, 10 µM compound Example 3-29; class B = 3-4 fold increase
[26] = molecular target: Nanoluc_DDB1 (N-terminal Nanoluc luciferase, G4S linker, DDB1 (FL)) (UniProt Q16531); assay: NanoBRET in HEK293T cells, 10 µM compound Example 3-60; class C = 2-3 fold increase

Sequence of Nanoluc_DDB1 (N-terminal Nanoluc luciferase, G4S linker, DDB1 (FL)) (Q16531 other isoform, or with tags, fused parts or gaps): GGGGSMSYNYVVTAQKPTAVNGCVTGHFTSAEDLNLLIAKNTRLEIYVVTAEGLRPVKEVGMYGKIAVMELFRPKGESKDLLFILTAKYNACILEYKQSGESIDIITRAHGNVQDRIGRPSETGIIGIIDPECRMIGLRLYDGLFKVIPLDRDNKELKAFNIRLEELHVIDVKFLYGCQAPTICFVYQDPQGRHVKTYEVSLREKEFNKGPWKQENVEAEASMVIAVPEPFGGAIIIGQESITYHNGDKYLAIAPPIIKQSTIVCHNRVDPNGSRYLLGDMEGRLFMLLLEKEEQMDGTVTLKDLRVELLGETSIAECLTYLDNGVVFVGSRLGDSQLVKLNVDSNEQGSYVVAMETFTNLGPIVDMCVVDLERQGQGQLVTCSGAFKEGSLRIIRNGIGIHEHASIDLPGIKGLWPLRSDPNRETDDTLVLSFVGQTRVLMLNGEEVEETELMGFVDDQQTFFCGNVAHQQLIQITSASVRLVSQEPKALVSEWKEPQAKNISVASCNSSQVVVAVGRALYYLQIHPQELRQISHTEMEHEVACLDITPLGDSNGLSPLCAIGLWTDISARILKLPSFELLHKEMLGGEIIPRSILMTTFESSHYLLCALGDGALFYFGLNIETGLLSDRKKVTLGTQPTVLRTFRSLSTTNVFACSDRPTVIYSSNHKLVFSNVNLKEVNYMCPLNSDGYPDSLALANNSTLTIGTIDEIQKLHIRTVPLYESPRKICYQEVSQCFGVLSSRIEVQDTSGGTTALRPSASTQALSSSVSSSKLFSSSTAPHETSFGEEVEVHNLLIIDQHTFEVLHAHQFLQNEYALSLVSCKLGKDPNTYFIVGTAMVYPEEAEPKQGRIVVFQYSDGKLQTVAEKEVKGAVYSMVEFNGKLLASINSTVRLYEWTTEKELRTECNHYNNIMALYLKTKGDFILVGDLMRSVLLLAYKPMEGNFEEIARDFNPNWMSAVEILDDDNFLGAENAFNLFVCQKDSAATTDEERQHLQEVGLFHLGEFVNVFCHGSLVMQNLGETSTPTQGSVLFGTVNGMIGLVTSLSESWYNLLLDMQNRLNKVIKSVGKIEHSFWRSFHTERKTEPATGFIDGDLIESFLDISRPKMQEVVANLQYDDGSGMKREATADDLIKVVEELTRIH

NanoBRET fold increase [1]: 3 to 4 fold
NanoBRET fold increase [2]: 2 to 3 fold
NanoBRET fold increase [3]: > 4 fold
NanoBRET fold increase [4]: > 4 fold
NanoBRET fold increase [5]: 2 to 3 fold
NanoBRET fold increase [6]: 2 to 3 fold
EC50 [7]: > 10000 nM
EC50 [8]: < 250 nM
NanoBRET fold increase [9]: > 4 fold
NanoBRET fold increase [10]: 3 to 4 fold
EC50 [11]: < 250 nM
NanoBRET fold increase [12]: > 4 fold
NanoBRET fold increase [13]: 2 to 3 fold
NanoBRET fold increase [14]: 3 to 4 fold
NanoBRET fold increase [15]: 3 to 4 fold
NanoBRET fold increase [16]: > 4 fold
NanoBRET fold increase [17]: > 4 fold
EC50 [18]: > 10000 nM
EC50 [19]: < 250 nM
NanoBRET fold increase [20]: 2 to 3 fold
NanoBRET fold increase [21]: > 4 fold
NanoBRET fold increase [22]: 1 to 2 fold
NanoBRET fold increase [23]: 1 to 2 fold
NanoBRET fold increase [24]: 2 to 3 fold
NanoBRET fold increase [25]: 3 to 4 fold
NanoBRET fold increase [26]: 2 to 3 fold
Substance: HaloTag_CDK12 (N-terminal HaloTag, G4S linker, CDK12 (713-1052)) (from UniProt Q9NYV4 713-1052) (enzyme)
